Laboratory results taken from patent US20030059769, “High affinity nucleic acid ligands to lectins” (published 2003).

Tests used:
[1] = target: T1, L-selectin on PBMC / lymphocytes (Homo sapiens, UniProt P14151 P14151:39-372); experiment: flow; half-saturation; described as LD201T4 dumbell dimer; conditions: label: fluorescein
T1 sequence: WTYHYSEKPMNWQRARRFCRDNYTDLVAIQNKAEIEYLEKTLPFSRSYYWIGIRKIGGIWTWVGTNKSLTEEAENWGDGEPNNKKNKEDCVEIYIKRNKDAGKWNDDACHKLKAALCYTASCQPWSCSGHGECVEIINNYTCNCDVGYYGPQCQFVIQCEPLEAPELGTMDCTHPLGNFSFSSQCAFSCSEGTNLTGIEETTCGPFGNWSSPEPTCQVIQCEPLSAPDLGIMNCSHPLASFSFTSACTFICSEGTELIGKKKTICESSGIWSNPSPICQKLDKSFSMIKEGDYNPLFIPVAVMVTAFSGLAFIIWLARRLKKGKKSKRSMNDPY

P-selectin (PS-Rg) [2] = target: T2, P-selectin (PS-Rg) (Homo sapiens, UniProt P16109 P16109:42-321); experiment: filter; streptavidin complex; conditions: tags: human IgG Fc fusion; chain copies: 2 (stated dimer)
T2 sequence (P16109 42-321, one chain of several): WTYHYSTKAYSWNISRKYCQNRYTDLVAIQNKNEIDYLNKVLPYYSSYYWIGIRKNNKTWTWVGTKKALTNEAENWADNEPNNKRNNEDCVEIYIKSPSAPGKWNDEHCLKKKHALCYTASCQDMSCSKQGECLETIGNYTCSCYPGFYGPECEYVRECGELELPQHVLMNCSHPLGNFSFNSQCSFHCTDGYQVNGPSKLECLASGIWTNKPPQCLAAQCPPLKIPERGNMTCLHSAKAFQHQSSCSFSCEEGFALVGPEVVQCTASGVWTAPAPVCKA

P-selectin (PS-Rg) [3] = target: T2, P-selectin (PS-Rg); experiment: filter; conditions: tags: human IgG Fc fusion; chain copies: 2 (stated dimer)
[4] = target: T1, L-selectin on PBMC / lymphocytes; experiment: flow; half-saturation, monomer; conditions: hairpin
Description: A variety of monomeric nucleic acid ligands and multivalent Complexes have been examined in flow cytometry.

L-selectin (LS-Rg) [5] = target: T3, L-selectin (LS-Rg) (Homo sapiens, UniProt P14151 P14151:39-332); experiment: filter; room temperature; repeat of Table 13 (57 pM); conditions: tags: human IgG2 Fc fusion; chain copies: 2 (stated dimer)
T3 sequence: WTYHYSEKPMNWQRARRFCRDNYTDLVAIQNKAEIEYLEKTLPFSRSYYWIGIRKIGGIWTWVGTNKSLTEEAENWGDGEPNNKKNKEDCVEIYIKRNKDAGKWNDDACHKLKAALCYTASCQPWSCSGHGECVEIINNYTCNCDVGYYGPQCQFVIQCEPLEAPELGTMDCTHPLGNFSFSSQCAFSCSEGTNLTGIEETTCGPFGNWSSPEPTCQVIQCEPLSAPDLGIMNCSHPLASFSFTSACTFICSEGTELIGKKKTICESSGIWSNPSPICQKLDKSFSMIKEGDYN
Procedure: As described in SELEX Patent Applications and in Example 7, paragraph C, a nitrocellulose filter partitioning method was used to determine the affinity of ssDNA ligands for LS-Rg and for other proteins. For these experiments a Gibco BRL 96 well manifold was substituted for the 12 well Millipore manifold used in Example 7 and radioactivity was determined with a Fujix BAS100 phosphorimager. Bindin, data were analyzed as described in Example 7, paragraph C.

L-selectin (LS-Rg) [6] = target: T3, L-selectin (LS-Rg); experiment: filter; affinity reduction versus full length LF1807; called LF1807T5 in Table 16; conditions: tags: human IgG2 Fc fusion; chain copies: 2 (stated dimer)
Procedure: (§1) As described in SELEX Patent Applications, a nitrocellulose filter partitioning method was used to determine the affinity of RNA ligands for LS-Rg and for other proteins. Filter discs (nitrocellulose/cellulose acetate mixed matrix, 0.45 μm pore size, Millipore) were placed on a vacuum manifold and washed with 3 ml of SHMCK 140 buffer under vacuum. Reaction mixtures, containing ³²P labeled RNA pools and unlabeled LS-Rg, were incubated in SHMCK 140 for 10-20 min at 37° C., and then immediately washed with 3 ml SHMCK 140. The filters were air-dried and counted in a Beckman LS6500 liquid scintillation counter without fluor. Alternatively, binding studies employed 96 well micro-titer manifolds essentially as described in Example 13, paragraph E.
Predictions of minimal high affinity sequences for family 1 ligands can be made and serve as a partial test of the postulated secondary structure.

P-selectin (PS-Rg) [7] = target: T2, P-selectin (PS-Rg); experiment: inhibition; sialyl-LewisX; text says about 2 nM; conditions: tags: human IgG Fc fusion; chain copies: 2 (stated dimer)
Procedure: The ability of evolved RNA pools or cloned ligands to inhibit the binding of PS-Rg to sialyl-Lewis^x was tested in competitive ELISA assays (C. Foxall et al., 1992, supra). For these assays, the wells of Corning (25801) 96 well microtiter plates were coated with 100 ng of a sialyl-Lewis^x/BSA conjugate, air dried overnight, washed with 300 μl of PBS(−) and then blocked with 1% BSA in HSMC for 60 min at room temperature. RNA ligands were incubated with PS-Rg in HSMC/1% BSA at room temperature for 15 min. After removal of the blocking solution, 50 μl of PS-Rg (10 nM) or a PS-Rg (10 nM)/RNA ligand mix was added to the coated, blocked wells and incubated at room temperature for 60 minutes. The binding solution was removed, wells were washed with 300 μl of PBS(−) and then probed with HRP conjugated anti-human IgG, at room temperature to quantitate PS-Rg binding. After a 30 minute incubation at room temperature in the dark with OPD peroxidase substrate (Sigma P9187), the extent of PS-Rg binding and percent inhibition was determined from the OD₄₅₀.

[8] = target: T1, L-selectin on PBMC / lymphocytes; experiment: flow; half-saturation; described as LD201T4 fork dimer; conditions: label: fluorescein
P-selectin (PS-Rg) [9] = target: T2, P-selectin (PS-Rg); experiment: filter; Table 21 gives 63 pM; conditions: tags: human IgG Fc fusion; chain copies: 2 (stated dimer)
P-selectin (PS-Rg) [10] = target: T2, P-selectin (PS-Rg); experiment: inhibition; sialyl-LewisX; conditions: tags: human IgG Fc fusion; chain copies: 2 (stated dimer)
soluble L-selectin = target: T4, soluble L-selectin (Homo sapiens, UniProt P14151 P14151:39-332); experiment: filter; 37 C; table prints SEQ 339; conditions: tags: R&D Systems
T4 sequence: T3 sequence
Procedure: Unless otherwise indicated, all materials used in the 2′-F RNA SELEX against the L-selectin/IgG2 chimera, LS-Rg, were identical to those of Examples 7, paragraph A and 13, paragraph A. SHMCK-140 buffer, used for all SELEX and binding experiments, was 1 mM CaCl₂, 1 mM MgCC₂, 140 mM NaCl, 5 mM KCl. and 20 mM HEPES, pH 7.4. A soluble form of L-selectin, corresponding to the extracellular domains, was purchased from R&D Systems and used for some nitrocellulose filter binding experiments.
as §1

B1: NX303 dumbell dimer (ssDNA)
DNA: TCCAGTACAAGGTGCTAAACGTAATGGTT
modifications: two copies on PEG 3400, 5' amino C6 dT, 3'-3' terminal [1 = 5' amino modifier C6 dT; 29 = 3'-3' terminal dT; two identical copies on PEG 3400 (PEG left out)]
EC50 [1]: 0.1 nM

CUCAACGAGCCAGGAACAUCGACGUCAGCAAACGCGAG (ssRNA, 2'-F C and U, biotin bound to streptavidin) [PF377s1B:SA]
Kd (P-selectin (PS-Rg) [2]): 0.03 nM

CUCAACGAGUUCACAUGGGAGCAAUCUCCGAAUAAACAACACGCGAG (ssRNA, 2'-F C and U) [PF424s1]
Kd (P-selectin (PS-Rg) [3]): 0.178 nM

CCAGTACAAGGTGCTAAACGTAATGG (ssDNA) [LD201T4]
EC50 [4]: 20 nM

B2: LD230 (ssDNA)
DNA: CTACCTACGATCTGACTAGCTGCACACCTGAGGGTTACAAGGCGCTAGACGTAACCTCTCGCTTACTCTCATGTAGTTCC
Kd (L-selectin (LS-Rg) [5]): 0.044 nM

GGAGUCUUAGGCAGCGCGUUUUCGAGCUACUCC (ssRNA, 2'-F C and U) [LF1807T4]
binding signal (L-selectin (LS-Rg) [6]): ~3 fold

B3: PF377 (ssRNA)
RNA: GGGAGACAAGAAUAAACGCUCAACGAGCCAGGAACAUCGACGUCAGCAAACGCGAGCGCAACCAGUAACACCUUCGACAGGAGGCUCACAACAGGC
modifications: 2'-F C and U
IC50 (P-selectin (PS-Rg) [7]): 3 nM

B4: NX303 fork dimer (ssDNA)
DNA: TCCAGTACAAGGTGCTAAACGTAATGGTT
modifications: two copies on forked 20 kDa PEG, 5' amino C6 dT, 3'-3' terminal [1 = 5' amino modifier C6 dT; 29 = 3'-3' terminal dT; two identical copies on forked 20 kDa PEG (PEG left out)]
EC50 [8]: 0.6 nM

CUCAACGAACCACGGGGAAAUCCACCAGUAACACGCGAG (ssRNA, 2'-F C and U) [PF398s1]
Kd (P-selectin (PS-Rg) [9]): 0.178 nM
IC50 (P-selectin (PS-Rg) [10]): 2 nM

B5: LF1520 (ssRNA)
RNA: GGGAGGACGAUGCGGAUCGAUUUCAUGCGUUUUUCGAGUGACGAUCAGACGACUCGCCCGA
modifications: 2'-F C and U
Kd (soluble L-selectin): 0.5 nM
